The values that follow come from US20260258084A1, “New Peptides as Selective IL-23 Receptor Antagonists” (Sanofi, priority 2022, published 2026).

To fix the notation:
T1: recombinant human IL-23R-Fc chimera (human, UniProt Q5VWK5 24-353)
T1 construct: used at 0.1 µg/ml in the ELISA; not shown: Fc part of the chimera; detected with goat anti-hu-IgG1-HRP a
T1 sequence (looked up): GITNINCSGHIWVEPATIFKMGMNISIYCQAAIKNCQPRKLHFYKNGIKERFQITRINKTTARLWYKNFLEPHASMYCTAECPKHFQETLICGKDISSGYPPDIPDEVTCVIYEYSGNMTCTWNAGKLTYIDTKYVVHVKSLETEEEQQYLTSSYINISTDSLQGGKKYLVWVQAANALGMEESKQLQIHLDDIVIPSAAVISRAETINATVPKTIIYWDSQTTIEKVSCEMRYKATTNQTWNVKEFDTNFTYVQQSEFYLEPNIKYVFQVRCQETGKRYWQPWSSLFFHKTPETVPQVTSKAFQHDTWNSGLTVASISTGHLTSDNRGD

T2: IL-23 receptor on the surface of HEK-Blue IL-23 cells (UniProt Q5VWK5 24-629, limits assumed)
T2 sequence (looked up): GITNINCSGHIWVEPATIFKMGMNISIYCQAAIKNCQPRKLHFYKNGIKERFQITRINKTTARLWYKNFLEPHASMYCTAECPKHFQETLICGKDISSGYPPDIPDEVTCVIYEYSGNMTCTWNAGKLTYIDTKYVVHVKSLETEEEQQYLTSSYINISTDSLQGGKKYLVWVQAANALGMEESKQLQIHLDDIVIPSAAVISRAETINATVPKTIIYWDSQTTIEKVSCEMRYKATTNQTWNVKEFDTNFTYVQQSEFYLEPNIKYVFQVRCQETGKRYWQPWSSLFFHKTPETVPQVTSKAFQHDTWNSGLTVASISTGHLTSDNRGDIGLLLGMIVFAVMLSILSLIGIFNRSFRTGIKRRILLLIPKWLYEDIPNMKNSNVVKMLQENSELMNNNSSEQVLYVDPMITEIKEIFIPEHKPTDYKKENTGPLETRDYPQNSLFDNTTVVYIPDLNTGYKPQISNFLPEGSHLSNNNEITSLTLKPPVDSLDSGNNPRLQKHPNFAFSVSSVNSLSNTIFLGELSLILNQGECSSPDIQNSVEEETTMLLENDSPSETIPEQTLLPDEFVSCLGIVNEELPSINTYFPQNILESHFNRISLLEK

B1: Compound of SEQ ID NO: 61 (peptide)
peptide: [NMe5Ava]C[NdmK][Trp(7-Me)]K(Ac)C[Yde][2Nal][αMeLys(Me2)]EN[3Pal][Sar]-NH2
modifications: lactam N-10; disulfide 2-6
B2: Compound of SEQ ID NO: 7 (peptide)
peptide: K(Ac)CNTWQC[Tyr(Me)][2Nal][Aib]DNN-NH2
modifications: lactam (positions not given here); disulfide 2-7; not fully specified (bridges); printed as K[Ac](§1)-C(@2)-N-T-W-Q-C(@2)-Yme-Nal-Aib-D(§1)-N—N—NH2; also: K1 acetylated, whether acetyl is on alpha-N or epsilon-N (lactam via the other amine) not settled
notes: §1 lactam bridge; @2 disulfide bridge
B3: Compound of SEQ ID NO: 65 (peptide)
peptide: [Ava]CNT[Trp(7-Me)]K(Ac)C[Yde][2Nal][αMeL]EN[3Pal][Sar]-NH2
modifications: lactam N-11; disulfide 2-7
SMILES: CC(=O)NCCCC[C@@H]1NC(=O)[C@H](Cc2c[nH]c3c(C)cccc23)NC(=O)[C@H]([C@@H](C)O)NC(=O)[C@H](CC(N)=O)NC(=O)[C@@H]2CSSC[C@H](NC1=O)C(=O)N[C@@H](Cc1ccc(OCCN(C)C)cc1)C(=O)N[C@@H](Cc1ccc3ccccc3c1)C(=O)N[C@@](C)(CC(C)C)C(=O)N[C@H](C(=O)N[C@@H](CC(N)=O)C(=O)N[C@@H](Cc1cccnc1)C(=O)N(C)CC(N)=O)CCC(=O)NCCCCC(=O)N2

Starred links: 1 amine or outer side, 2 acyl side, 3 side chain; linkers in the order of their positions; H or OH if unused. Positions of bridges follow the written chain, without caps; N, C: chain ends. Non-standard residues stand in square brackets, D forms with d. No end group written: not given here. Yde = (2S)-2-amino-3-[4-[2-(dimethylamino)ethoxy]phenyl]propanoic acid, CN(C)CCOc1ccc(C[C@H](N[*:1])C(=O)[*:2])cc1; NdmK = (2S)-6-amino-2-(dimethylamino)hexanoic acid, CN(C)[C@@H](CCCCN[*:3])C(=O)[*:2]; Trp(7-Me) = Cc1cccc2c(C[C@H](N)C(=O)O)c[nH]c12; Tyr(Me) = COc1ccc(C[C@H](N[*:1])C(=O)[*:2])cc1; αMeLys(Me2) = CN(C)CCCC[C@](C)(N)C(=O)O; 2Nal = N[C@@H](Cc1ccc2ccccc2c1)C(=O)O; NMe5Ava = CN(CCCCC(=O)[*:2])[*:1]; 3Pal = N[C@@H](Cc1cccnc1)C(=O)O; αMeL = CC(C)C[C@](C)(N)C(=O)O; Aib = CC(C)(N)C(=O)O; Ava = NCCCCC(=O)O; Sar = CNCC(=O)O

The first experiment has as its target T1, recombinant human IL-23R-Fc chimera. The experiment in a line: competition ELISA: IL-23R-Fc binding to coated human IL23. The method, then: Antagonism of compounds for human interleukin-23 receptor antagonists, was determined by an ELISA assay.
A 384-well plate was coated with 50 μl/well of human IL23 at a final concentration of […] and incubated overnight at 4° C. The wells were washed 3 times with 80 μl wash buffer and blocked with 80 μl blocking buffer for 60 minutes at room temperature and washed again. 20 μl of serially diluted test peptides was added to each well and subsequently 20 μl of recombinant human IL-23R-Fc chimera at final concentration of 0.1 μg/ml. The plate was incubated for 60 minutes at room temperature. After the wells were washed, bound IL23R-Fc was detected with goat anti-hu-IgG1-HRP antibody. Signals were visualized with QuantaBlu Fluorogenic Peroxidase Substrate.
What is called IC50 is the concentration at which inhibition is half-maximal. Take B1: the IC50 amounted to 360 pM.

On to B2, for which the IC50 was 600 pM.

As for B3, the IC50 was determined as 370 pM.

For a further experiment, the target named is T2, IL-23 receptor on the surface of …. The experiment in a line: cell-based or functional assay.
With B1, the “pSTAT3 (nM)” value worked out at 4.4 nM.

Take B2: the “pSTAT3 (nM)” value came to 25 nM.

B3: the “pSTAT3 (nM)” value came to 0.23 nM.
